# Experimental data taken from the Immune Epitope Database (IEDB).
# Columns and labels:
# HLA-A*30:01 = test: IEDB peptide-MHC binding, purified MHC/competitive/radioactivity; filed as Kd, often an IC50 or EC50 that approximates it; ≥ and ≤ were set here for values at or beyond the usual limits of such assays
# HLA-B*58:01 = test: IEDB peptide-MHC binding, purified MHC/direct/fluorescence; filed as Kd, often an IC50 or EC50 that approximates it; ≥ and ≤ were set here for values at or beyond the usual limits of such assays
# HLA-B*57:01 = test: as above
# HLA-B*40:01 = test: as above
# HLA-A*24:02 = test: IEDB peptide-MHC binding, purified MHC/competitive/fluorescence; ≥ and ≤ were set here for values at or beyond the usual limits of such assays
# HLA-B*44:03 = test: IEDB peptide-MHC binding, purified MHC/competitive/radioactivity; filed as Kd, often an IC50 or EC50 that approximates it; ≥ and ≤ were set here for values at or beyond the usual limits of such assays
# HLA-B*51:01 = test: as above
# HLA-A*68:02 = test: as above
# HLA-A*02:01 = test: IEDB peptide-MHC binding, purified MHC/competitive/fluorescence; ≥ and ≤ were set here for values at or beyond the usual limits of such assays; details: source organism: Sudan ebolavirus
# HLA-A*02:03 = test: IEDB peptide-MHC binding, purified MHC/competitive/radioactivity; filed as Kd, often an IC50 or EC50 that approximates it; ≥ and ≤ were set here for values at or beyond the usual limits of such assays
# HLA-A*02:06 = test: as above
# HLA-A*02:02 = test: as above
# HLA-B*44:02 = test: as above
# HLA-A*31:01 = test: as above; details: source organism: Vaccinia virus WR
# HLA-A*03:01 [1] = test: as above; details: source organism: Vaccinia virus WR
# HLA-A*33:01 = test: as above; details: source organism: Vaccinia virus WR
# HLA-A*68:01 = test: as above; details: source organism: Vaccinia virus WR
# HLA-A*11:01 [2] = test: as above; details: source organism: Vaccinia virus WR
# HLA-B*53:01 = test: as above
# HLA-A*03:01 [3] = test: IEDB peptide-MHC binding, purified MHC/direct/fluorescence; filed as Kd, often an IC50 or EC50 that approximates it; ≥ and ≤ were set here for values at or beyond the usual limits of such assays; details: source organism: Campylobacter jejuni RM1221
# HLA-A*11:01 [4] = test: as above; details: source organism: Campylobacter jejuni RM1221
# HLA-A*26:01 = test: IEDB peptide-MHC binding, purified MHC/competitive/radioactivity; filed as Kd, often an IC50 or EC50 that approximates it; ≥ and ≤ were set here for values at or beyond the usual limits of such assays; details: source organism: Dengue virus 3 Martinique/1243/1999
# [5] = source organism: Dengue virus 2 Jamaica/1409/1983
# [6] = source organism: Brucella abortus 2308
# [7] = source organism: Zaire ebolavirus
# [8] = source organism: Vaccinia virus WR
# [9] = source organism: Dengue virus 1 Brazil/97-11/1997
# [10] = source organism: Sudan ebolavirus
# [11] = source organism: Trypanosoma cruzi
# [12] = source organism: Lassa virus Josiah
# [13] = source organism: Dengue virus 4 Philippines/H241/1956
# [14] = source organism: Toxoplasma gondii
# [15] = source organism: Dengue virus 2 Peru/IQT2913/1996
# [16] = source organism: Dengue virus 3 Martinique/1243/1999
sequence,measurement,setting,value
TTTESRCPTQ,Kd,HLA-A*30:01; [5],≥ 28700 nM
VARGARFFL,Kd,HLA-B*58:01; [6],≥ 20000 nM
same,Kd,HLA-B*57:01; [6],509 nM
AEQIVLGVI,Kd,HLA-B*40:01; source organism: Mycobacterium tuberculosis variant bovis,61.1 nM
HYWTTQDEG,IC50,HLA-A*24:02; [7],42800 nM
RAILGCAQA,Kd,HLA-A*30:01; [8],2370 nM
AEPIDIQTW,Kd,HLA-B*44:03; source organism: Homo sapiens,66 nM
EPPFGESYI,Kd,HLA-B*51:01; [9],13800 nM
NLQKESRACL,Kd,HLA-A*68:02; source organism: Homo sapiens,19700 nM
FHKDGAFFL,IC50,HLA-A*24:02; [10],6730 nM
same,IC50,HLA-A*02:01,≥ 92900 nM
LLGLWGLATA,Kd,HLA-A*68:02; [11],407 nM
same,Kd,HLA-A*02:03; [11],1.39 nM
same,Kd,HLA-A*02:06; [11],57.9 nM
same,Kd,HLA-A*02:02; [11],1.69 nM
AVKDVTITK,Kd,HLA-A*30:01; [8],2.16 nM
RQLQKIERW,Kd,HLA-B*57:01; source organism: Yellow fever virus,405 nM
LIALSVLAV,Kd,HLA-A*68:02; [12],323 nM
same,Kd,HLA-A*02:03; [12],2.63 nM
same,Kd,HLA-A*02:06; [12],336 nM
same,Kd,HLA-A*02:02; [12],117 nM
QRWGGTCHI,IC50,HLA-A*24:02; [7],43300 nM
EEHKETWHY,Kd,HLA-B*44:03; [13],16.9 nM
same,Kd,HLA-B*44:02; [13],203 nM
TTKDYFSFK,Kd,HLA-A*31:01,1.33 nM
same,Kd,HLA-A*03:01 [1],18.1 nM
same,Kd,HLA-A*33:01,17.6 nM
same,Kd,HLA-A*30:01; [8],1.23 nM
same,Kd,HLA-A*68:01,1.07 nM
same,Kd,HLA-A*11:01 [2],0.861 nM
HTHLSNQNL,Kd,HLA-A*30:01; [8],5.78 nM
KTSGRGSCM,Kd,HLA-B*58:01; [14],6000 nM
same,Kd,HLA-B*57:01; [14],≥ 20000 nM
TPEGIIPSMF,Kd,HLA-B*53:01; [5],417 nM
KNRLNALGK,Kd,HLA-A*30:01; [15],142 nM
GLLPSLLLLL,Kd,HLA-A*68:02; [11],≥ 33000 nM
same,Kd,HLA-A*02:03; [11],1.83 nM
same,Kd,HLA-A*02:06; [11],7.28 nM
same,Kd,HLA-A*02:02; [11],3.06 nM
LAGVSLLPV,Kd,HLA-B*51:01; [16],1910 nM
FTMTHRRPTI,Kd,HLA-A*68:02; [16],114 nM
same,Kd,HLA-A*02:06; [16],647 nM
same,Kd,HLA-B*51:01; [16],≥ 20400 nM
VNNLEHGLF,IC50,HLA-A*24:02; [7],25400 nM
LLEGEEERL,Kd,HLA-A*68:02; source organism: Homo sapiens,≥ 136000 nM
same,Kd,HLA-A*02:06; source organism: Homo sapiens,≥ 20500 nM
EPEVANLDI,Kd,HLA-B*51:01; [9],≥ 44500 nM
same,Kd,HLA-B*53:01; [9],7230 nM
GVVTRSGAYV,Kd,HLA-A*68:02; [5],333 nM
KVSDSNLHK,Kd,HLA-A*03:01 [3],190 nM
same,Kd,HLA-A*11:01 [4],4.6 nM
NELNYILWE,Kd,HLA-B*44:03; [16],270 nM
KLEGDSTDL,Kd,HLA-A*68:02; source organism: Homo sapiens,2050 nM
LPVWLAYKV,Kd,HLA-B*51:01; [15],515 nM
same,Kd,HLA-B*53:01; [15],157 nM
AEIPLQWIA,Kd,HLA-B*44:03; [16],634 nM
same,Kd,HLA-B*44:02; [16],68.6 nM
AVSFSSPIS,Kd,HLA-A*30:01; [8],1310 nM
CVIASSGMLW,Kd,HLA-A*26:01,1220 nM
same,Kd,HLA-B*53:01; [16],22.2 nM
GTNGNHMQI,IC50,HLA-A*24:02; [10],3020 nM
same,IC50,HLA-A*02:01,62900 nM
NEGIMAIGI,Kd,HLA-B*44:03; [9],109 nM
same,Kd,HLA-B*44:02; [9],18.8 nM
CARISSRES,Kd,HLA-A*30:01; source organism: Vaccinia virus Copenhagen,586 nM
VTPSMTMRCV,Kd,HLA-A*68:02; [16],193 nM
NESDPEGALW,Kd,HLA-B*44:03; [9],134 nM
same,Kd,HLA-B*44:02; [9],26.6 nM
KGFYASPSV,Kd,HLA-A*30:01; [8],2.68 nM
NEIRALMAL,Kd,HLA-B*40:01; source organism: Mycobacterium tuberculosis,18.2 nM
PFDAVLYYH,IC50,HLA-A*24:02; [7],4690 nM
EEPVPMSTY,Kd,HLA-B*44:02; [16],360 nM
AMYADDTAGW,Kd,HLA-B*44:02; [5],124 nM
